Measurements: US20040121386

What was measured:
[1] = test system: T1, His-tagged MKK7γ1
T1 sequence: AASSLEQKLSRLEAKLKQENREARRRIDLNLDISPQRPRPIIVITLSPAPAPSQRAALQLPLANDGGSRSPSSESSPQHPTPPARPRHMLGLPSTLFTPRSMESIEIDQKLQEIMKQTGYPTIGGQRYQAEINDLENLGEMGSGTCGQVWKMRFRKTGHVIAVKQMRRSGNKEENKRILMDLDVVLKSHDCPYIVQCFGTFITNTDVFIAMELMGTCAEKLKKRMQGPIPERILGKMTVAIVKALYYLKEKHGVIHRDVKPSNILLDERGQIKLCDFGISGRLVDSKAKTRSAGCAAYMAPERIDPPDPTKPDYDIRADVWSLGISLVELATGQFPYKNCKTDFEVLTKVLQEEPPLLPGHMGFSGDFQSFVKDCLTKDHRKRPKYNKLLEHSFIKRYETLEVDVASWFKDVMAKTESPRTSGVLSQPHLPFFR

[2] = test system: unactive MKK7β1 (UBI)
[3] = test system: unactive JNK1 (Upstate, Inc.)

Substance: Active MEKK1 (Upstate, Inc.)
- phosphorylation in a two-step cascade kinase assay (γ-32P-ATP, SDS/PAGE, autoradiography) [1]: The His-tagged MKK7γ1 protein and the MKK7β1 protein was phosphorylated by MEKK1
- phosphorylation in a two-step cascade kinase assay (γ-32P-ATP, SDS/PAGE, autoradiography) [2]: The His-tagged MKK7γ1 protein and the MKK7β1 protein was phosphorylated by MEKK1

Substance: unactive MKK7β1 (UBI)
- phosphorylation in a two-step cascade kinase assay (γ-32P-ATP, SDS/PAGE, autoradiography) [3]: in turn was able to phosphorylate JNK1
